Assay results published in patent US20220380407A1 (WASHINGTON UNIVERSITY, published 2022).
Positions of bridges follow the written chain, without caps; N, C: chain ends. Non-standard residues stand in square brackets, D forms with d. Primed or numbered codes have the meaning given here. *: point of attachment. X5 = 1‑acetyl‑4‑phenethylpiperidin‑4‑yl carbamate, CC(=O)N1CCC(CCc2ccccc2)(OC(=O)*)CC1; X4 = 1‑(phenylsulfonyl)piperidin‑4‑yl carbamate, O=C(OC1CCN(S(=O)(=O)c2ccccc2)CC1)*; X2 = 1‑(ethylsulfonyl)piperidin‑4‑yl carbamate, CCS(=O)(=O)N1CCC(OC(=O)*)CC1; X3 = 4‑benzylpiperidin‑4‑yl carbamate, O=C(OC1(Cc2ccccc2)CCNCC1)*; X1 = 4‑phenylpiperidin‑4‑yl carbamate, O=C(OC1(c2ccccc2)CCNCC1)*; kbt″ = ketobenzothiazole (C-terminal Arg), c1ccc2sc(*)nc2c1; kbt = C-terminal Arg ketobenzothiazole; Cha = N[C@@H](CC1CCCCC1)C(=O)O

T1: recombinant N-terminal His-tag HGFA serine protease domain (UniProt Q04756 373-655)
T1 sequence (looked up): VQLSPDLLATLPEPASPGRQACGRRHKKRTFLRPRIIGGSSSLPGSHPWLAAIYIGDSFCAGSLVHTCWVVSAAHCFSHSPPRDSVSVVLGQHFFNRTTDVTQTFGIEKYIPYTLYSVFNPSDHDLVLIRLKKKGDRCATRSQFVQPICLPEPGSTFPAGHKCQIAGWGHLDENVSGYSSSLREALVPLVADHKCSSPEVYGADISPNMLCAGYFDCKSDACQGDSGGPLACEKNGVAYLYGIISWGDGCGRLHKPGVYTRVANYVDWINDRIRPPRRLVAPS

T2: matriptase (#3946-SE-010, R&D Systems) (UniProt Q9Y5Y6 615-855)
T2 sequence (looked up): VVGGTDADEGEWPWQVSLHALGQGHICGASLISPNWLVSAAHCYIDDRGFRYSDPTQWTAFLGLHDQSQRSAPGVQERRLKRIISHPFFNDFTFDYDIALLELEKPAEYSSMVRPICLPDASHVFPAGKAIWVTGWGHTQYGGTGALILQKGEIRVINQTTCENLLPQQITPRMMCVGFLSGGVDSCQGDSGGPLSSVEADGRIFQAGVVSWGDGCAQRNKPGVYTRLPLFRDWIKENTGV

T3: KLK5 (#1108-SE-010, R&D Systems) (UniProt Q9Y337 23-293, limits assumed)
T3 sequence (looked up): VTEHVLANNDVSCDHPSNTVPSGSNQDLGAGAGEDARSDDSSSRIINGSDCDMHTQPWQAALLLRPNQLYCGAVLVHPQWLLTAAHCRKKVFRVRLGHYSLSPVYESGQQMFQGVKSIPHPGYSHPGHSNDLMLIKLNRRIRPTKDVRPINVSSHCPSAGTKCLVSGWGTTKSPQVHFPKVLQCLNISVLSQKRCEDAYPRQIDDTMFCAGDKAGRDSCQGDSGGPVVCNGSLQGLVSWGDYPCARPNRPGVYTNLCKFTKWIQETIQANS

B1: Ac-SKLR kbt V-amide, ZFH7116 (peptide)
peptide: Ac-SKLR-{kbt-Val-NH2}
B2: Cyclo(DLK)R-kbt, VD2173 (peptide)
peptide: Ac-DLKR-kbt
modifications: lactam 1-3; not fully specified; printed as Cyclo(DLK)R-kbt; also: N-terminal acetyl described as 6-acetamido
B3: 4-phenylpiperidin-4-yl Cha-Arg-kbt carbamate (8d) (peptide)
peptide: X1-[Cha]-Arg-{kbt″}
B4: 4-benzylpiperidin-4-yl Leu-Arg-kbt carbamate (8b) (peptide)
peptide: X3-Leu-Arg-kbt
B5: 1-(ethylsulfonyl)piperidin-4-yl Leu-Arg-kbt carbamate (8h) (peptide)
peptide: X2-Leu-Arg-kbt
B6: 1-(phenylsulfonyl)piperidin-4-yl Leu-Arg-kbt carbamate (8f) (peptide)
peptide: X4-Leu-Arg-kbt
B7: 4-phenylpiperidin-4-yl ((S)-1-(((S)-1-(benzo[d]thiazol-2-yl)-5-guanidino-1-oxopentan-2-yl)amino)-4-methyl-1-oxopentan-2-yl)carbamate (8a) (peptide)
peptide: X1-Leu-Arg-kbt
B8: 1-acetyl-4-phenethylpiperidin-4-yl Leu-Arg-kbt carbamate (8c) (peptide)
peptide: X5-Leu-Arg-kbt
B9: phenyl(piperidin-4-yl)methyl Leu-Arg-kbt carbamate (11a) (peptide)
peptide: {phenyl(piperidin-4-yl)methyl carbamate}-Leu-Arg-kbt

Each binder was assayed against T4, human TMPRSS2 (human, UniProt O15393 1-492) (assay: cell-based or functional assay).
T4 sequence (O15393 whole entry): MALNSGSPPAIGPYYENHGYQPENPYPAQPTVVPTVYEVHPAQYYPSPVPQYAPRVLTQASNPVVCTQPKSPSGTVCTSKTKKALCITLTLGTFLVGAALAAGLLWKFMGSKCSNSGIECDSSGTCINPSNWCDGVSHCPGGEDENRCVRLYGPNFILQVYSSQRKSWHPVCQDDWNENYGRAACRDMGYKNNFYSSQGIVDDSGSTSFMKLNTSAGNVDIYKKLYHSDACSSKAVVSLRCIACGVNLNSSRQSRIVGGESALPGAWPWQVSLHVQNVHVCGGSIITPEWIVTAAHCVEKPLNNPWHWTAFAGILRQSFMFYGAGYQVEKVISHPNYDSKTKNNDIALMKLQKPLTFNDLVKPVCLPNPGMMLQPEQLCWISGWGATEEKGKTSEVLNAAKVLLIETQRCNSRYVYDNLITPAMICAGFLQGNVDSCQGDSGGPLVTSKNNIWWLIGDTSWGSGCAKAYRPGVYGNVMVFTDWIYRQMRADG
B1 was tested, and the “IC50, cell-based TMPRSS2 fluorogenic enzyme inhibition assay” value was 51 nM. B2 was tested, and the “IC50, cell-based TMPRSS2 fluorogenic enzyme inhibition assay” value was 6.9 nM.

The binders below were run against T1, recombinant N-terminal His-tag HGFA … (assay: cell-based or functional assay).
For B2, the “HGFA (IC50 nM)” value was 3590 nM.

The binders below were run against T2, matriptase (#3946-SE-010, R&D Systems) (assay: cell-based or functional assay).
B2 was tested, and the “Matriptase (IC50 nM)” value was 0.28 nM.

These binders were tested against T5, activated hepsin (#4776-SE-010, R&D Systems) (UniProt P05981 45-417, limits assumed) (assay: cell-based or functional assay).
T5 sequence (P05981 45-417 limits assumed): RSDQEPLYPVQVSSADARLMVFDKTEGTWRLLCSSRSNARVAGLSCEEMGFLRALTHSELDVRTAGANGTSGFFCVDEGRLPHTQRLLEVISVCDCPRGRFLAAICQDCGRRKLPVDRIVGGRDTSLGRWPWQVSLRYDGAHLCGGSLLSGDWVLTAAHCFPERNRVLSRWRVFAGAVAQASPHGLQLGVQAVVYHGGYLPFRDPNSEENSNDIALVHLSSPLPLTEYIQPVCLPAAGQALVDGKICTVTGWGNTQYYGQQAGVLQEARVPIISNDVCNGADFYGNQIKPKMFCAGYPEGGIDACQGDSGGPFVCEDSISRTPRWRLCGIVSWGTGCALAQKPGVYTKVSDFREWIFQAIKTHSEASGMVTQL
B2 was tested, and the “Hepsin (IC50 nM)” value was 8.4 nM.

What follows are binders tested against T6, recombinant thrombin (#1473-SE-010, R&D Systems) (UniProt P00734 44-622) (assay: cell-based or functional assay).
In the case of B2, the “Thrombin* (IC50 nM)” value is reported as 700 nM.

These binders were tested against T7, Factor Xa (#1063-SE-010, R&D Systems) (UniProt P00742 41-488, limits assumed) (assay: cell-based or functional assay).
T7 sequence (P00742 41-488 limits assumed): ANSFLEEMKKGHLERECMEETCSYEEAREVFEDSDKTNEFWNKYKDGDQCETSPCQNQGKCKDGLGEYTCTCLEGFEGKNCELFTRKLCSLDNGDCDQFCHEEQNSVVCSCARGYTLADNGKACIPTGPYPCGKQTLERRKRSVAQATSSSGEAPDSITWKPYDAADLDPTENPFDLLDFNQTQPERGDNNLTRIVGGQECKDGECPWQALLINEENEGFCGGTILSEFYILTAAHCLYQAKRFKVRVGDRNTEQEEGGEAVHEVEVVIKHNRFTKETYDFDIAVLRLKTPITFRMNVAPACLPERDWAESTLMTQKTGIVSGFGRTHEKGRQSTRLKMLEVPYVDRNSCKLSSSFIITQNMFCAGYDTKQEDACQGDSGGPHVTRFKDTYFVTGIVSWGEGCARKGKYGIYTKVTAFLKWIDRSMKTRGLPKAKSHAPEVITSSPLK
B2 was tested, and the “Factor Xa* (IC50 nM)” value was 564 nM.

Biological target: T1, recombinant N-terminal His-tag HGFA …
Experiment: cell-based or functional assay
Remark: another data set of the same source
For B3, the “HGFA IC50” value was > 20000 nM. For B4, the “HGFA IC50” value was 1200 nM. For B5, the “HGFA IC50” value was > 20000 nM. In the case of B6, the “HGFA IC50” value is reported as 8600 nM. For B7, the “HGFA IC50” value was 780 nM. For B8, the “HGFA IC50” value was > 20000 nM. B9 was tested, and the “HGFA IC50” value was 14000 nM.

Biological target: T2, matriptase (#3946-SE-010, R&D Systems)
Experiment: cell-based or functional assay
Remark: another data set of the same source
With B3 the “Matriptase IC50” value was 2100 nM. For B4, the “Matriptase IC50” value was 30 nM. For B5, the “Matriptase IC50” value was 730 nM. With B6 the “Matriptase IC50” value was 810 nM. B7 was tested, and the “Matriptase IC50” value was 90 nM. With B8 the “Matriptase IC50” value was 70 nM. For B9, the “Matriptase IC50” value was 1100 nM.

Biological target: T5, activated hepsin (#4776-SE-010, R&D …)
Experiment: cell-based or functional assay
Remark: another data set of the same source
For B3, the “Hepsin IC50” value was 90 nM. With B4 the “Hepsin IC50” value was 0.6 nM. For B5, the “Hepsin IC50” value was 10 nM. With B6 the “Hepsin IC50” value was 20 nM. For B7, the “Hepsin IC50” value was 5 nM. B8 was tested, and the “Hepsin IC50” value was 0.5 nM. In the case of B9, the “Hepsin IC50” value is reported as 8 nM.

Biological target: T6, recombinant thrombin (#1473-SE-010, R&D …)
Experiment: cell-based or functional assay
Remark: another data set of the same source
With B3 the “Thrombin IC50” value was > 20000 nM. In the case of B4, the “Thrombin IC50” value is reported as > 20000 nM. With B5 the “Thrombin IC50” value was > 20000 nM. With B6 the “Thrombin IC50” value was > 20000 nM. For B7, the “Thrombin IC50” value was > 20000 nM. With B8 the “Thrombin IC50” value was 7700 nM. In the case of B9, the “Thrombin IC50” value is reported as > 20000 nM.

Biological target: T7, Factor Xa (#1063-SE-010, R&D Systems)
Experiment: cell-based or functional assay
Remark: another data set of the same source
B3 was tested, and the “Factor Xa IC50” value was 9000 nM. For B4, the “Factor Xa IC50” value was 6500 nM. With B5 the “Factor Xa IC50” value was > 20000 nM. In the case of B6, the “Factor Xa IC50” value is reported as > 20000 nM. In the case of B8, the “Factor Xa IC50” value is reported as 2000 nM. With B9 the “Factor Xa IC50” value was > 20000 nM.

Each binder was assayed against T3, KLK5 (#1108-SE-010, R&D Systems) (assay: cell-based or functional assay).
With B1 the “KLK5 IC50” value was 137 nM. For B2, the “KLK5 IC50” value was 193 nM.

Biological target: T1, recombinant N-terminal His-tag HGFA …
Experiment: cell-based or functional assay
Remark: another data set of the same source
In the case of B1, the “HGFA IC50” value is reported as 26 nM. In the case of B2, the “HGFA IC50” value is reported as 5260 nM.

Biological target: T2, matriptase (#3946-SE-010, R&D Systems)
Experiment: cell-based or functional assay
Remark: another data set of the same source
For B1, the “Matriptase IC50” value was 11 nM. For B2, the “Matriptase IC50” value was 1.4 nM.

Biological target: T5, activated hepsin (#4776-SE-010, R&D …)
Experiment: cell-based or functional assay
Remark: another data set of the same source
With B1 the “Hepsin IC50” value was 0.5 nM. For B2, the “Hepsin IC50” value was 10 nM.

Biological target: T4, human TMPRSS2
Experiment: cell-based or functional assay
Remark: another data set of the same source
With B1 the “Calu-3 EC50” value was 307 nM. In the case of B2, the “Calu-3 EC50” value is reported as 104 nM.
